This passage reports basal YFP/CFP ratio and mean maximal FRET ratio change after Thrombin results from paper PMC4857094.

Experiment [1] has as its target circularly permutated RBD of PKN1 (PKN1-WT) in the RhoA/B/C FRET sensors. The experiment is described as follows: FRET or BRET; intramolecular single-chain sensor (PKN1 RBD, mVenus, Cerulean3, RhoGTPase); average basal YFP/CFP ratio in resting live primary human EC (HUVEC), 18 hours after microporation. A general note: In BRET a luciferase serves as donor, and the signal depends on an acceptor being close.

For experiment [2] the target is unchanged. In words: FRET or BRET; intramolecular single-chain sensor (PKN1 RBD, mVenus, Cerulean3, RhoGTPase); normalized mean YFP/CFP ratio change of whole live HUVEC after Thrombin (1 U/ml) at t = 110 sec.

On to “RhoA-Q63L in the RhoA FRET sensor (from UniProt P61586 1-193) (natural protein)”, for which the basal YFP/CFP ratio in experiment [1] is 8.1.

Turning to “RhoA-WT in the RhoA FRET sensor (from UniProt P61586 1-193) (natural protein)”, the mean maximal FRET ratio change after Thrombin in experiment [2] was found to be 32%.

For the substance “RhoB-G14V in the RhoB FRET sensor (from UniProt P62745 1-196) (natural protein)”, in experiment [1], the basal YFP/CFP ratio is 6.5.

For “RhoB-WT in the RhoB FRET sensor (from UniProt P62745 1-196) (natural protein)”, in experiment [2], the mean maximal FRET ratio change after Thrombin was 122%.

Turning to “RhoC-G14V in the RhoC FRET sensor (from UniProt P08134 1-193) (natural protein)”, in experiment [1], the basal YFP/CFP ratio was 6.2.

“RhoC-Q63L in the RhoC FRET sensor (from UniProt P08134 1-193) (natural protein)”: the basal YFP/CFP ratio in experiment [1] stood at 6.8.

For “RhoC-WT in the RhoC FRET sensor (from UniProt P08134 1-193) (natural protein)”, the mean maximal FRET ratio change after Thrombin in experiment [2] stood at 42%.
